Where a chain is given by its changes, count along the chain named.
T1: 人源hCD73-His (北京义翘神州, Catalog 10904-H08H) (human, UniProt P21589 27-547)
T1 construct: Bought protein; also called 人CD73; not shown: His tag
T1 sequence (looked up): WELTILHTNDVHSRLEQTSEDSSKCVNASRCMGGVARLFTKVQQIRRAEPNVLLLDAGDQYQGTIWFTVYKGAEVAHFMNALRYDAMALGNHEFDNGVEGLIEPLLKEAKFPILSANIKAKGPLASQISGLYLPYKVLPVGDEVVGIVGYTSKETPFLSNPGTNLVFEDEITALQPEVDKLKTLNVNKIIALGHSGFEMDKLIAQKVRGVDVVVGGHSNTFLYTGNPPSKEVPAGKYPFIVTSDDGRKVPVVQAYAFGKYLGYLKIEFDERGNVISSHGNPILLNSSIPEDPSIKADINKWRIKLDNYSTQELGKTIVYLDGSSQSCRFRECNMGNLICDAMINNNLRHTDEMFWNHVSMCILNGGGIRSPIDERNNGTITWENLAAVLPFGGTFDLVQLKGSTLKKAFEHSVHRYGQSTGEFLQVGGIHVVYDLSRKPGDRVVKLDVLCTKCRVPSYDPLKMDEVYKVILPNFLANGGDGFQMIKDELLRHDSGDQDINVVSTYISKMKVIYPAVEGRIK

T2: 鼠源mCD73-His (近岸生物, Catalog CD3-M52H9) (mouse, UniProt Q61503 29-551)
T2 construct: Bought protein; also called 小鼠CD73; not shown: His tag
T2 sequence (looked up): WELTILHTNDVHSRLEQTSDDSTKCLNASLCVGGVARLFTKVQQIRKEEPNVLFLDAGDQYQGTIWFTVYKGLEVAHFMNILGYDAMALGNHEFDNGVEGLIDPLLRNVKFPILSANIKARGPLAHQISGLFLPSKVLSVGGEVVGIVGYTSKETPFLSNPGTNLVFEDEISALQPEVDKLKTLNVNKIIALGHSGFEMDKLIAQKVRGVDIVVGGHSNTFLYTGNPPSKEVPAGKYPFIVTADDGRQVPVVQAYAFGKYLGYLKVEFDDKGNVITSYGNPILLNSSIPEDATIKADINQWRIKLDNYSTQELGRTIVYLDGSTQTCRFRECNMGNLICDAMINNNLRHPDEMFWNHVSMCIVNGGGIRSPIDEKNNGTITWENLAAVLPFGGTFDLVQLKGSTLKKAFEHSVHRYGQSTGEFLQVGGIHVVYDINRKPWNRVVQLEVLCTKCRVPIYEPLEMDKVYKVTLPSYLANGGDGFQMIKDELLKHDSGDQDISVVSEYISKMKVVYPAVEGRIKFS

T3: 食蟹猴cCD73-His (近岸生物, Catalog CD3-C52H9) (cynomolgus monkey, UniProt A0A2K5V5U7 27-547)
T3 construct: Bought protein; also called 食蟹猴CD73; not shown: His tag
T3 sequence: T1 sequence (looked up) with M199T, T350A, V466I

T4: CD73 on the cell membrane of MDA-MB-231 cells (human breast cancer cells) (human, UniProt P21589 27-549)
T4 sequence (looked up): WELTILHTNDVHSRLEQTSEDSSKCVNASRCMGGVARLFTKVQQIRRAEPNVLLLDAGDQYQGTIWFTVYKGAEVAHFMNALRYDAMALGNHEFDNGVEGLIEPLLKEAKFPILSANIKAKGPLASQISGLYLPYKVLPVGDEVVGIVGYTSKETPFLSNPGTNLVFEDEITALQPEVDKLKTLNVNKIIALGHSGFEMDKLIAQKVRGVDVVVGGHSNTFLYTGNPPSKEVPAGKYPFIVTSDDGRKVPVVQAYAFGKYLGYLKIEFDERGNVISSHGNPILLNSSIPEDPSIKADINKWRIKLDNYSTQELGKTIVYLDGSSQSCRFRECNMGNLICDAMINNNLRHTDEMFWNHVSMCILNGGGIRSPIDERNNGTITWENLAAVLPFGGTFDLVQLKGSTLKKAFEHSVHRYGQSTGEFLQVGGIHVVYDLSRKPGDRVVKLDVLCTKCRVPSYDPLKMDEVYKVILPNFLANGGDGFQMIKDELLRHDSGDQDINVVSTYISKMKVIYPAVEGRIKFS

B1: 抗体P59-L12 (antibody, IgG1, V domains shown)
VH: EVQLVESGGGLVQPGGSLRLSCAASGFSFDTYAMSWVRQAPGKGLEWVSAISGDTGVTGYADSVKGRFTISRDNSKNTLYLQMNSLRAEDTAVYYCARDRYAYLVDGWFDYWGQGTLVTVSS
VL: DIQMTQSPSSLSASVGDRVTITCRASQGISSYLAWYQQKPGKAPKLLIYAASSLQSGVPSRFSGSGSGTDFTLTISSLQPEDFATYYCQTSDFFPNPVTFGQGTKVEIK
B2: 抗体P59-L1 (antibody, IgG1, V domains shown)
VH: B1 VH
VL: B1 VL with T90Q, S91A, D92S, F93Y, F94T, P95G, N96D
B3: 抗体P59-L17 (antibody, IgG1, V domains shown)
VH: B1 VH
VL: B1 VL with S91W, D92S, F93G, F94W, N96D, P97Y, V98L
notes: also called P59-17
B4: 抗体P59-L6 (antibody, IgG1, V domains shown)
VH: B1 VH
VL: B1 VL with Q89A, T90Q, S91Y, F94S, P95F, N96Y, P97G

Tests used:
[1] = molecular target: T1, 人源hCD73-His (北京义翘神州, Catalog 10904-H08H); assay: SPR, Biacore T200, antibody captured on Protein A chip, hCD73-His as analyte from 32 nM, 1:1 model
[2] = molecular target: T2, 鼠源mCD73-His (近岸生物, Catalog CD3-M52H9); assay: ELISA, mCD73-His coated at 2 μg/ml, anti-h-Kappa-HRP detection; NA表示不结合或基本不结合
[3] = molecular target: T3, 食蟹猴cCD73-His (近岸生物, Catalog CD3-C52H9); assay: ELISA, cCD73-His coated at 2 μg/ml, antibody from 4 μg/ml in 3-fold steps, anti-h-Kappa-HRP
[4] = molecular target: T1, 人源hCD73-His (北京义翘神州, Catalog 10904-H08H); assay: ELISA, hCD73-His coated at 2 μg/ml, antibody from 4 μg/ml in 3-fold steps, anti-h-Kappa-HRP
[5] = molecular target: T4, CD73 on the cell membrane of MDA-MB-231 …; assay: cell-based or functional assay
[6] = molecular target: T4, CD73 on the cell membrane of MDA-MB-231 …; assay: flow cytometry (MFI) on MDA-MB-231 cells, antibody from 10 ug/ml in 2-fold steps, anti-humanFc-PE

Row | Binder | Kd [1] [nM] | koff [1] [s⁻¹] | kon [1] [M⁻¹ s⁻¹] | binding result [2] | EC50 [3] [µg/mL] | EC50 [4] [µg/mL] | IC50 of the inhibition of the enzyme activity of cell membrane CD73 (MDA-MB-231 cells, AMP/ATP luminescence assay) [5] [µg/mL] | EC50 [6] [µg/mL]
1 | B1 | 8.25 | 0.0068 | 827000 |  |  |  |  | 
2 | B2 | 7.67 | 0.00557 | 726000 |  |  |  |  | 
3 | B3 | 0.569 | 0.000126 | 221000 | no binding (tested: 4μg/ml (highest concentration tested)) | 0.0427 | 0.0339 | 0.127 | 0.438
4 | B4 | 1.85 | 0.000198 | 107000 |  |  |  |  | 

Source: patent CN115368458A (BIO THERA SOLUTIONS LTD, dated 2022)
